Legend:
CCR5, P51681 [1] = experiment: competition SPA, displacement of 125I-MIP-1α from CCR5 CHO membranes (FIG. 2); conditions: remark: other sources report otherwise
CCR5, P51681 [2] = experiment: competition SPA, displacement of 125I-MIP-1α from CCR5 CHO membranes; conditions: remark: other sources report otherwise

Sequence of CCR5, P51681 (P51681 whole entry): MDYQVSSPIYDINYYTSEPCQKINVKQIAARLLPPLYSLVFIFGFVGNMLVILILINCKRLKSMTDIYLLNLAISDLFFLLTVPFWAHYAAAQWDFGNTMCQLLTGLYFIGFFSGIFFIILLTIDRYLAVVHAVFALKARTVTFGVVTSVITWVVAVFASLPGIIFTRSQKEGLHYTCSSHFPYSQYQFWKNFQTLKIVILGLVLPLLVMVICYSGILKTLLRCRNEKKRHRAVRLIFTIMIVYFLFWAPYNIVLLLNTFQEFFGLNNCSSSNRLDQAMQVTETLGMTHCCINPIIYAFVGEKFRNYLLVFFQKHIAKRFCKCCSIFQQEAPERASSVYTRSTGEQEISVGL

Binder | IC50 (CCR5, P51681 [1]) [nM] | IC50 (CCR5, P51681 [2]) [nM]
PEG-2 kDa-RANTES, P13501 24-91 (ligand) {mPEG‑ButyrALD 2 kDa}-SPYSSDTTPCCFAYIARPLPRAHIKEYFYTSGKCSNPAVVFVTRKNRQVCANPEKKWVREYINSLEMS | 3.1 | 10.6
PEG-5 kDa-RANTES, P13501 24-91 (ligand) {mPEG‑ButyrALD 5 kDa}-SPYSSDTTPCCFAYIARPLPRAHIKEYFYTSGKCSNPAVVFVTRKNRQVCANPEKKWVREYINSLEMS | 2.2 | 2.8
Mature wildtype (wt) human RANTES, P13501 24-91 (ligand) SPYSSDTTPCCFAYIARPLPRAHIKEYFYTSGKCSNPAVVFVTRKNRQVCANPEKKWVREYINSLEMS | 1.3 | 1.6
